Experiments:
[1] = biological target: T1, rabbit heart lactate dehydrogenase (Oryctolagus cuniculus, UniProt A0A5F9DPL1); experiment: NADH oxidation, A340; format: biochemical; conditions: 0.300 mM NADH, 0.1 M Tris pH 9.0
T1 construct: gene LDHB; commercial native enzyme from heart (MilliporeSigma), tetramer

O=C(O)C(F)Cl = experiment: LDH-coupled NADH oxidation, A340, 96-well plate, Michaelis-Menten fit; format: biochemical, Dechloromonas aromatica (nom. nud.); conditions: 0.1 M Tris pH 8.0, room temperature not stated for plate, 40 ug DEF2, 50 ug LDH, 400 uM NADH, racemic substrate 1-30 mM

T1 sequence (A0A5F9DPL1 1-334): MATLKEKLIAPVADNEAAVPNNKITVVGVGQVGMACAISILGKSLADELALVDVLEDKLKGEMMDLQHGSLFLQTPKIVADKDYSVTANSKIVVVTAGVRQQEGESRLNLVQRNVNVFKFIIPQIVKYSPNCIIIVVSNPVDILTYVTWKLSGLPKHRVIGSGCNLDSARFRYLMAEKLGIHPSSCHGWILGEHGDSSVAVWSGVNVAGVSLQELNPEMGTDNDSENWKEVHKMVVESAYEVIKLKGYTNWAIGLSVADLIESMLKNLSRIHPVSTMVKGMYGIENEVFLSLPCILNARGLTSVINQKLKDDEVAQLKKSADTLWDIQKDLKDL

| Compound | NADH oxidation, A340 [1] | Km (O=C(O)C(F)Cl) | kcat (O=C(O)C(F)Cl) |
| --- | --- | --- | --- |
| O=CC(=O)O [glyoxylate] | activity with commercial rabbit heart lactate dehydrogenase with glyoxylate was too slow |  |  |
| DEF2 (Dechloromonas aromatica RCB) |  | 6.0 mM | 0.00533 s⁻¹ |
